The record followed here is patent US20060234926.

The data set has as its target beta2-microglobulin, native monomer (UniProt P61769). The data set can be described thus: SPR. To be noted: at 0.5 uM RNA; 317 nM at 0.1 uM RNA; TMGA buffer pH 3.6.

Sequence of beta2-microglobulin, native monomer (P61769 21-119): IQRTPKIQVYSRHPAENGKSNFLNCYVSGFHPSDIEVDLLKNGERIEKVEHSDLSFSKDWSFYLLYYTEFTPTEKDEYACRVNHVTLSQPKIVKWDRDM

As a reminder, the Kd is the concentration at which binding is half-saturated. Low values mean a tighter complex, high ones a looser complex. In turn, “GGCNUGACANGGCAGGAUAGCCGGNCNANGCGANCNNUNGGNCCNCGANACCCGACNGUGG [N4]” had a dissociation constant Kd of 104 nM.
